Test results taken from publication PMC8185068, “Intracellular artificial supramolecules based on de novo designed Y15 peptides” (Nature Communications, 2021).

Molecular target: the molecule itself
Test: thioflavin T fluorescence; synthetic peptides 5-50 µM in PBS, incubated 24 h at 37 °C, then 25 µM thioflavin T; fluorescence spectra

B1: Y15 peptide (peptide)
peptide: YEYKYEYKYEYKYEY
notes: de novo designed self-assembling peptide Y15; source: synthetic peptide (Fmoc solid-phase synthesis, RP-HPLC)
B1: binds.
